In PMC2651629, “Structure of the Archaeal Pab87 Peptidase Reveals a Novel Self-Compartmentalizing Protease Family” (PLoS ONE, 2009):

How the values were obtained:
[1] = biological target: Pyrococcus abyssi Pab87 protein (Pyrococcus abyssi); assay: AUC; sedimentation velocity, 20°C, 40,000 rpm, 10 µM protein in 150 mM Tris pH 8.5, 350 mM NaCl; c(s) and c(M) distributions (Sedfit)
[2] = biological target: Pyrococcus abyssi Pab87 protein (Pyrococcus abyssi); assay: cryo-EM structure; 0.5 mg/mL Pab87 in 50 mM Tris-HCl pH 8.5, 350 mM NaCl; single-particle reconstruction at around 14 Å, fitted with the X-ray structure
[3] = biological target: Pyrococcus abyssi Pab87 protein (Pyrococcus abyssi); assay: crystal structure; Pab87 co-crystallised with Lu-HPDO3A (200 mM), 20 mM CaCl2, 30% MPD, 100 mM sodium acetate pH 4.6, 18°C; space group P1, eight molecules per asymmetric unit; 2.2 Å

Measured: stoichiometry N

Pyrococcus abyssi Pab87 protein (enzyme)
8: [1] | [2] | [3]
